Assay [1] concerns the target Drosophila melanogaster CNNM CBS-pair domain, GST-tagged (D. melanogaster). The assay is described as follows: ITC; VP-ITC, 20 °C, 20 mM Hepes pH 7.5, 100 mM NaCl, 5 mM TCEP; GST-CBS-pairs titrated with PRL; single site-binding model. Background: In ITC the heat of successive injections is recorded.
For assay [2], the target named is Naegleria fowleri CNNM CBS-pair domain (N. fowleri). The assay is described as follows: ITC. The following applies: enzyme.

In general, Kd refers to the free concentration of one partner at which half of the binding sites on the other are occupied at equilibrium, for simple one-to-one binding. Higher therefore signals lower affinity.

Sequence of Drosophila melanogaster CNNM CBS-pair domain, GST-tagged (D. melanogaster) (A0A0B7P9G0 362-515): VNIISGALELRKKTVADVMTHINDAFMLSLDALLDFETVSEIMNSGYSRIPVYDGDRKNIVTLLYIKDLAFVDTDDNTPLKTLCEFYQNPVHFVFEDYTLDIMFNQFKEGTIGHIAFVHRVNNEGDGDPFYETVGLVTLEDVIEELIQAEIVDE

“Drosophila melanogaster PRL C109D (from UniProt O61722 1-176)”: in assay [1], the fold decrease of affinity against wild type is less than 2 fold.

With Naegleria fowleri PRL, in assay [2], the Ka amounted to 688000 M⁻¹ and the Kd stood at 1500 nM.

In turn, “Drosophila melanogaster PRL R143E (from UniProt O61722 1-176) (enzyme)” came in with a fold decrease of affinity against wild type in assay [1] of 20 fold.

Source of the values: PMC10040874.
